Results taken from patent US8586357B2, “Markers of definitive endoderm” (ViaCyte, Inc., priority 2003, dated 2013).

What was measured:
Assay type in all cases: cell-based, human
hESCs [1] = assay: AFP antibody-labeled cell number by flow cytometry; conditions: presence vs absence of activin A; FIGS. 9A-B
Source text: As a further evidence of the specificity of the SOX17^hi/AFP^lo/TM^lo/SPARC^lo marker profile as predictive of definitive endoderm, SOX17 and AFP gene expression was quantitatively compared to the relative number of antibody labeled cells.

hESCs [2] = assay: Validation of definitive endoderm markers by Q-PCR (Example 12); conditions: 100 ng/ml activin A vs no exogenous activin A; Example 12 written in present tense
Procedure: Using the methods, such as those described in the above Examples, hESCs are differentiated to produce definitive endoderm. In particular, to increase the yield and purity of definitive endoderm in differentiating cell cultures, the serum concentration of the medium is controlled as follows: 0% FBS on day 1, 0.2% FBS on day 2 and 2.0% FBS on days 3-6. Differentiating cell populations are grown in the presence of 100 ng/ml activin A, whereas non-differentiating control populations are grown in the absence of activin A. Human embryonic cell cultures grown in the presence or absence of activin A and in either 2% serum or 10% serum over the entire 6 day differentiation period are also monitored. Daily samples of each culture are withdrawn and the amount of mRNA transcript produced for each of the markers AGPAT3, APOA2, C20orf56, C21orf129, CALCR, CCL2, CER1, CMKOR1, CRIP1, CXCR4, CXorf1, DIO3, DIO3OS, EB-1, EHHADH, ELOVL2, EPSTI1, FGF17, FLJ10970, FLJ21195, FLJ22471, FLJ23514, FOXA2, FOXQ1, GATA4, GPR37, GSC, LOC283537, MYL7, NPPB, NTN4, PRSS2, RTN4RL1, SEMA3E, SIAT8D, SLC5A9, SLC40A1, SOX17, SPOCK3, TMOD1, TRPA1, TTN, AW166727, AI821586, BF941609, AI916532, BC034407, N63706 and AW772192 is measured by Q-PCR.

hESCs (hESCyt-25) = assay: Q-PCR gene expression assay of marker genes in differentiating hESCs; conditions: for suppression of AFP gene expression: in comparison to no treatment (10% FBS alone), FIG. 8A
Procedure: In the following experiments, real-time quantitative RT-PCR (Q-PCR) was the primary assay used for screening the effects of various treatments on HESC differentiation. In particular, real-time measurements of gene expression were analyzed for multiple marker genes at multiple time points by Q-PCR. Marker genes characteristic of the desired as well as undesired cell types were evaluated to gain a better understanding of the overall dynamics of the cellular populations. The strength of Q-PCR analysis includes its extreme sensitivity and relative ease of developing the necessary markers, as the genome sequence is readily available. Furthermore, the extremely high sensitivity of Q-PCR permits detection of gene expression from a relatively small number of cells within a much larger population. In addition, the ability to detect very low levels of gene expression provides indications for “differentiation bias” within the population. The bias towards a particular differentiation pathway, prior to the overt differentiation of those cellular phenotypes, is unrecognizable using immunocytochemical techniques. […] Additionally, Q-PCR provides a mechanism by which to evaluate the success of a differentiation protocol in a quantitative format at semi-high throughput scales of analysis.
The approach taken here was to perform relative quantitation using SYBR Green chemistry on a Rotor Gene 3000 instrument (Corbett Research) and a two-step RT-PCR format. Such an approach allowed for the banking of cDNA samples for analysis of additional marker genes in the future, thus avoiding variability in the reverse transcription efficiency between samples.
Primers were designed to lie over exon-exon boundaries or span introns of at least 800 bp when possible, as this has been empirically determined to eliminate amplification from contaminating genomic DNA.
We routinely used Q-PCR to measure the gene expression of multiple markers of target and non-target cell types in order to provide a broad profile description of gene expression in cell samples. The markers relevant for the early phases of hESC differentiation (specifically ectoderm, mesoderm, definitive endoderm and extra-embryonic endoderm) and for which validated primer sets are available are provided below in Table 1. […] This is an important fact since the hESCs were often grown on mouse feeder layers. Most typically, triplicate samples were taken for each condition and independently analyzed in duplicate to assess the biological variability associated with each quantitative determination.
To generate PCR template, total RNA was isolated using RNeasy (Qiagen) and quantitated using RiboGreen (Molecular Probes). Reverse transcription from 350-500 ng of total RNA was carried out using the iScript reverse transcriptase kit (BioRad), which contains a mix of oligo-dT and random primers. Each 20 μL reaction was subsequently diluted up to 100 μL total volume and 3 μL was used in each 10 μL Q-PCR reaction containing 400 nM forward and reverse primers and 5 μL 2×SYBR Green master mix (Qiagen). Two step cycling parameters were used employing a 5 second denature at 85-94° C. (specifically selected according to the melting temp of the amplicon for each primer set) followed by a 45 second anneal/extend at 60° C. Fluorescence data was collected during the last 15 seconds of each extension phase. A three point, 10-fold dilution series was used to generate the standard curve for each run and cycle thresholds (Ct's) were converted to quantitative values based on this standard curve. The quantitated values for each sample were normalized to housekeeping gene performance and then average and standard deviations were calculated for triplicate samples. At the conclusion of PCR cycling, a melt curve analysis was performed to ascertain the specificity of the reaction. A single specific product was indicated by a single peak at the Tm appropriate for that PCR amplicon. […]

B1: Activin A: growth factor of the TGFβ superfamily, Nodal/Activin subgroup; definitive endoderm inducer (protein, UniProt P08476 311-426, looked up)
Inhibin beta A chain: GLECDGKVNICCKKQFFVSFKDIGWNDWIIAPSGYHANYCEGECPSHIAGTSGSSLSFHSTVINHYRMRGHSPFANLKSCCVPTKLRPMSMLYYDDGQNIIKKDIQNMIVEECGCS
- decrease in AFP antibody-labeled cell number (hESCs [1]): approximately 7 fold
- expression levels of the Table 4 markers (AGPAT3 ... AW772192) (hESCs [2]): high
- SOX17 gene expression, dose response (hESCs (hESCyt-25); 0, 10, 30 or 100 ng/ml, 3 days adherent then 1, 3 and 5 days suspension culture, FIG. 11): dose-dependently increases
- relative levels of CXCR4 gene expression with increasing dose (hESCs (hESCyt-25); 0, 10 or 100 ng/mL, 7 days, FIG. 32): dramatically increased
- CXCR4 expression (hESCs (hESCyt-25); 100 ng/mL activin A (A100) vs no exogenous activin A (NF), 6 days, FIG. 26): high
- CXCR4 level (hESCs (hESCyt-25); 100 ng/mL activin A, 10% FBS condition, 6 days, FIG. 26): remarkable decrease
- mesoderm differentiation (expression of brachyury) (hESCs (hESCyt-25); 100 ng/ml, FIG. 14B): notable suppression
- SOX17 induction compared to no factor medium controls (hESCs (hESCyt-25); 4-day time point, 10% serum): 5 fold
- expression of brachyury relative to untreated control cultures (hESCs (hESCyt-25); 10 and 30 ng/ml, later time points, FIG. 14B): maintain the expression of brachyury at later time points
- SOX17 gene expression relative to the undifferentiated control media (SR20) (hESCs (hESCyt-25); FIG. 7A): increases
- difference in the level of SOX17 mRNA expression, Activin A vs retinoic acid treated hESCs (hESCs (hESCyt-25); FIG. 7A): 10 fold
- expression of the visceral endoderm marker AFP, dose response (hESCs (hESCyt-25); FIG. 13A): dose-dependent decrease
- expression of the neural marker ZIC1 (hESCs (hESCyt-25); FIG. 14A): not a dose-dependent effect
- expression of MIXL1, GATA4 and HNF3b, dose response (hESCs (hESCyt-25); FIGS. 12A-C): dose-dependent increases
- expression of SOX7 (primitive endoderm) and SPARC (parietal endoderm) (hESCs (hESCyt-25); FIGS. 13B-C): remain either unchanged or exhibit suppression at some time points
- induction of SOX17 gene expression vs. undifferentiated hESCs (hESCs (hESCyt-25); day 4 of differentiation, Activin A at 100 ng/ml, medium with 10% serum, FIG. 19): 19 fold
- SOX17 gene expression and cell number (hESCs (hESCyt-25); doses of 100 ng/mL or more): potently inducing
- suppression of AFP gene expression (hESCs (hESCyt-25)): 6.8 fold
- suppression of AFP gene expression (hESCs (hESCyt-25); listed as activin A): approximately 7 fold
